The supplement of paper PMC9170038

System: K4 kissing-loop RNA reporter
Experiment: apparent KD of K4 kissing-loop reporter; higher = weaker reporter binding
Conditions: Eterna round: R107
Protocol: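 RNA-MaP round R107: designed RNA switches with theophylline, tryptophan, arginine or FMN aptamers are transcribed on-chip within common flanks. They are titrated with a labelled K4 kissing-loop RNA reporter in RNA-MaP buffer (100 mM Tris pH 7.5, 80 mM KCl, 4 mM MgCl2), without ligand or with the indicated ligand. Median apparent KD per design.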

[1] = input ligand: theophylline 20 uM
[2] = input ligand: tryptophan 2.4 mM
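Note: bound reporter read as fluorescence of individual clusters on recovered sequencing chips by microscopy, with normalized cluster intensities fitted with a binding model.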

| Sequence | apparent KD of K4 kissing-loop reporter (input ligand: FMN 200 uM) | apparent KD of K4 kissing-loop reporter (input ligand: arginine 13.2 mM) | apparent KD of K4 kissing-loop reporter (input ligand: none) | apparent KD of K4 kissing-loop reporter [1] | apparent KD of K4 kissing-loop reporter [2] |
| --- | --- | --- | --- | --- | --- |
| CACGCCUGUUGUCUGGUAGACAGAUCAGAUACCAGACAUAGUGAUGUCCCUUGGCAGCUGAACAUCCAGUGAUGUUGGAUGCGUU [Theo A SS t11] | 447 nM | 333 nM | 446 nM | 394 nM | 371 nM |
| GGGAGUGAUGUUCCCACGUUGUCGGUCCUUCGAGGACCGGUACGGCCGCCACUCGCGACCCAGUGAUGUUGGGAUUCACCGUACC [Exclusion Tryptophan A Gf 13] | 431 nM | 421 nM | 471 nM | 506 nM | 409 nM |
| UGGACGAUAUACGAUAAGUAUAUCUGGGAUACCAGUGACGAAAGUCACCCUUGGCAGCUCAACUGCCAGUGAUGUUGGUAGUCCA [#17 K4 Theophylline A Same State] | 192 nM | 153 nM | 135 nM | 182 nM | 126 nM |
| UGUGUUUACCUGACCCAGUGAUGUUGGGAAGGAGCGUGCGAAAGCACAGGUAGGUCGCUCAACCUAAAGUCAGGUGAGCACUAAA [#SwitchBubble 9 #K4Early] | 407 nM | 277 nM | 447 nM | 470 nM | 328 nM |
| AGACCACAAAGUGGUCAGUGUUCGCUCCGGCGAGGACCGGUACGGCCGCCACUCGCGAGUGAUGUUCGCGAGCGGAGCGAACACA [Omei KL Tryp A Exc A v2] | 101 nM | 86.6 nM | 99.9 nM | 88.9 nM | 95.1 nM |
| AAUGUACAAGUGAUGUUUGUACUUUCCGAAGGAGCGUCUAAUAAGACAGGUAGGUCGCGGAUUCUCUAAAUUAUCAGGUCAUUAA [JR_ExcArginiA_Sub018] | 91.8 nM | 85.4 nM | 94.3 nM | 85.6 nM | 87.4 nM |
| UGACAUUGCUCAGAUACCAGUCAUGAGGAUCACCCAUGGGCCAAAACGUACUAAAUAAAUGACCCUUGGCAGCUGAGCAAUGUCU [TheoBX 13] | 116 nM | 36.9 nM | 37.7 nM | 165 nM | 72 nM |
| GUAUCGCUAGGAGGAUAUUUCAAAUAAUAAAUAAAUGGUUAUACGGAGUGAUGUUCCGAUUUACGGAAAGAAGGCCUAGUGAUAC [FMN B 3] | 118 nM | 144 nM | 155 nM | 153 nM | 147 nM |
| GCCGUACGCAUGGAUACCAGCUAUUAGAGUGAUGUUCUAUGGCCCUGCCAGAGUAGCUGUAGCCCUUGGCAGCCAUGCGUACGGC | 148 nM | 119 nM | 130 nM | 144 nM | 140 nM |
| GGAGCUACCUGGGAUACCAGUCGGAGUCUCAGAGCUCGGAGUGAUGUUCUGGGAUGUUUCGGCCCUUGGCAGCUCUGGGACUCCU [#2 Exclusion - Theophylline B Attempt #18 (HarryS)] | 872 nM | 749 nM | 864 nM | 763 nM | 881 nM |
| GUAUCGCUAGGAGGAUAUUUCAAUUUGACUCUUUGAGUUAAUACGGAGUGAUGUUCCGAUUUACGGAAAGAAGGCCUAGUGAUAC [FMN B 13] | 123 nM | 203 nM | 238 nM | 219 nM | 210 nM |
| GGAUGGUAGGCGGCCGCCACUAAAACUGAACACAUACAAACCAGUGAUGUUGGUAUGAUGAAGUAUAGGACCGGGCCUAGAUAGA [Exclusion - Tryptophan B (Freestyle 2)] | 1040 nM | 731 nM | 972 nM | 672 nM | 827 nM |
| CCUUGGGCACGCCCACUAGGAAGCUAGUCUAAGGAUAUCGACUGGACGAGAAGGUAGACGGACCCGAGUGAUGUUCGGACAUAGG [theeternabot_sameState_KL_FMN_A_1] | 469 nM | 260 nM | 215 nM | 179 nM | 200 nM |
| GUAUCGCUAGGAGGAUAUUUCGUUUUUCAUAGCAAUGGCUAUGCGGAGUGAUGUUCCGAUUUACCGAAAGAAGGCCUAGUGAUAC [FMN B 25] | 95.2 nM | 87.8 nM | 99.2 nM | 103 nM | 98.8 nM |
| UCGGGAGGCCGAAGGAGCGCCGCCAGUGAUGUUGGGAGUUAGAUACCAGUGAUGUUGGGCCGGCAGGUAGGUCGCGGCCGCGGAU [Exclusion Arginine B Gf 18] | 201 nM | 106 nM | 147 nM | 168 nM | 153 nM |
| UGAUAGGACAGAAGGAGCGGUAGUGAUGUUACCAAAAGAAUAAGGUGUCAAAAGACACCCUACCAGGUAGGUCGCUGUCCUAUCU | 170 nM | 237 nM | 189 nM | 220 nM | 179 nM |
| GAUUGAGGAAACUCGAUCUUAUAUCCUAGGCAGGAUAUGCGGAAACGCAGAAGGGCCACCUAGCAGUGAUGUUGCAAGCGAAAGC [Ex FMN A 5] | 203 nM | 425 nM | 379 nM | 471 nM | 207 nM |
| AUAUUAACUCAGUGAUGUUGAGUUGACGAAGGAGCGCUAGAGAUAGCAGGUAGGUCGCGUCAAUUUAAUGGAGACUAGCUUUACG [Arg A Ex t4] | 343 nM | 297 nM | 365 nM | 351 nM | 307 nM |
| GUAGGAUGAGGAGGAGGAUGAAUUACUGAAGGAGCGCAUAUUAAUGCAGGUAGGUCGCGGUAAAGAAGUAUAGUGAUGUUAUAUA [SSArgA.H] | 238 nM | 538 nM | 589 nM | 399 nM | 234 nM |
| AAGUGAUGUUGUAGUGAUGUUGUGAUGUUGCAGGAUAUAUAGUGAUGUAGAAGGGUAUGUUCAGUUUUUUUUUUUGAGUGUUGAU [szxmullin] | 84.3 nM | 35.3 nM | 62.8 nM | 47.6 nM | 66.5 nM |
| UUAGAGAUCUCAGGAUAUCAGUGAUGUUGGUGUGAAGAUCUGAGAUAGAAUUCUAUCUCAGAUCAAUGAGAAGGGAGAUCUCAUU [AK3.1 Exc FMN B] | 385 nM | 162 nM | 209 nM | 181 nM | 168 nM |
